According to article PMC3482342 (Journal of molecular biology, 2011):

Biological target: T1, Full-length MukF (E. coli, UniProt P60293 1-440)
T1 sequence (looked up): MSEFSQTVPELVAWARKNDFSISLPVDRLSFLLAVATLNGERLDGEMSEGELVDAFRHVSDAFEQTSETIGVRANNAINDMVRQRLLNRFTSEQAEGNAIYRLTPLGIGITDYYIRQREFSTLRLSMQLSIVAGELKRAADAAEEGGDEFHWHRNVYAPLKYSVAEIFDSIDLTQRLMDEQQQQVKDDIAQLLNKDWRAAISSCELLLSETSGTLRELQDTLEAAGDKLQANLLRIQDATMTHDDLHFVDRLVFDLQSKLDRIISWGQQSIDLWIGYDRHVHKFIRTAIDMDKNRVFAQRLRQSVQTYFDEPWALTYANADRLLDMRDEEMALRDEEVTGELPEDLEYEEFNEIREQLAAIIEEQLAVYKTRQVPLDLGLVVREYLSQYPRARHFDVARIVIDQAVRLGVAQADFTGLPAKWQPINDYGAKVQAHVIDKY
Test: AUC

B1: MukE-DRER (MukE-D196A/R198A/E199S/R202S) (natural protein, E. coli, UniProt P22524 10-234, looked up)
chain: MPVKLAQALANPLFPALDSALRSGRHIGLDELDNHAFLMDFQEYLEEFYARYNVELIRAPEGFFYLRPRSTTLIPRSVLSELDMMVGKILCYLYLSPERLANEGIFTQQELYDELLTLADEAKLLKLVNNRSTGSDVDRQKLQEKVRSSLNRLRRLGMVWFMGHDSSKFRITESVFRFGADVRAGDAPASAQSRLIRDGEAMPIENHLQLNDETEENQPDSGEEE
stoichiometry N: 2 MukE per MukF
